Measured values reported in patent US20190290692A1 (MINERVA BIOTECHNOLOGIES, published 2019).

B1: PSMGFR minus 10 amino acids from the C-terminus (peptide)
peptide: GTINVHDVETQFNQYKTEAASRYNLTISDVSVSDV
notes: also called C-10; C-10 PSMGFR

Legend:
NME7-AB = molecular target: T1, NME7-AB (human, UniProt Q9Y5B8 92-376); assay: ELISA, peptide immobilised on plate (FIG. 2A)
T1 construct: also called NM23-H7
T1 sequence: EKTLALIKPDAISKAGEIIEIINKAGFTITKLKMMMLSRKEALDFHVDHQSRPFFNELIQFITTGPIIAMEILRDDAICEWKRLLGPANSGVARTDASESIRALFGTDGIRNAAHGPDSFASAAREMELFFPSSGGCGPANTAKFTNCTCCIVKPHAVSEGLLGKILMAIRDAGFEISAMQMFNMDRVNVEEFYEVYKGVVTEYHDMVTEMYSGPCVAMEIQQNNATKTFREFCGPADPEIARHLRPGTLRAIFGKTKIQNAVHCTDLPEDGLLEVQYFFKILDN
Description: (§1) FIGS. 2A-2F show results of ELISA assays. MUC1* peptides PSMGFR, PSMGFR minus 10 amino acids from the N-terminus aka N-10, or PSMGFR minus 10 amino acids from the C-terminus, aka C-10 are immobilized on the plate and the following are assayed for binding: NME7-AB (A), MN-C2 monoclonal antibody (B), MN-E6 monoclonal antibody (C), or dimeric NME1 (D). […] MUC1* peptides PSMGFR minus 10 amino acids from the N-terminus aka N-10, or PSMGFR minus 10 amino acids from the C-terminus, aka C-10, are immobilized on the plate and the following are assayed for binding: MN-C3 (E) and MN-C8 (F).

dimeric NME1 = molecular target: T2, dimeric NME1 (human, UniProt P15531 1-152, limits assumed); assay: ELISA, peptide immobilised on plate (FIG. 2D)
T2 construct: Used in dimer form; also called NM23-H1 dimers; dimeric NM23-H1
T2 sequence (P15531 whole entry): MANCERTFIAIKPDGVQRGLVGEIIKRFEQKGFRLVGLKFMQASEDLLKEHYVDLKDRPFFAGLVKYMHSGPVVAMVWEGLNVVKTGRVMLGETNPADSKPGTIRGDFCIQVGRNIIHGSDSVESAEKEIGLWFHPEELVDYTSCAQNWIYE
Description: as §1

[1] = molecular target: T3, PSMGFR peptide (Primary Sequence of the MUC1 Growth Factor Receptor); assay: ELISA, peptide immobilised on plate (FIG. 22B)
T3 construct: Immobilised on ELISA plates or attached to 1 um or 4.5 um beads; also called MUC1* peptide; MUC1* PSMGFR peptide
T3 peptide: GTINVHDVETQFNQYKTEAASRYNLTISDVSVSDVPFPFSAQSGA
Description: (§2) FIGS. 22A-22C show graphs of ELISAs wherein the assay plate surface was immobilized with either PSMGFR peptide, PSMGFR minus 10 amino acids from the N-terminus or minus 10 amino acids from the C-terminus. The MN-C3 antibody variants were then assayed for binding to the various MUC1* peptides. A) Purified mouse monoclonal MN-C3 antibody; B) Impure humanized MN-C3 antibody; and C) the humanized MN-C3 scFv-Fc. ELISAs show binding to the PSMGFR peptide as well as to certain deletion peptides.

[2] = molecular target: T3, PSMGFR peptide (Primary Sequence of the …); assay: ELISA, peptide on plate (FIG. 2B)
Description: as §1

[3] = molecular target: T4, PSMGFR minus 10 amino acids from the N-terminus; assay: competitive ELISA, peptide on plate (FIG. 3C)
T4 construct: also called N-10; N-10 PSMGFR
T4 peptide: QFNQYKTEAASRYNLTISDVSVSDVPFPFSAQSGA
Description: FIGS. 3A-3C show results of competitive ELISA assays. The PSMGFR MUC1* peptide is immobilized on the plate and dimeric NM23-H1, aka NME1, is added either alone or after the MN-E6 antibody has been added (A). The same experiment was performed wherein NM23-H7, NME7-AB, is added alone or after MN-E6 has been added (B). […] In a similar experiment (C), PSMGFR or PSMGFR minus 10 amino acids from the N-terminus, aka N-10, is immobilized on the plate. Dimeric NM23-H1 is then added. Anti-MUC1* antibodies MN-E6, MN-C2, MN-C3 or MN-C8 are then tested for their ability to compete off the NM23-H1.

[4] = molecular target: T3, PSMGFR peptide (Primary Sequence of the …); assay: ELISA, PSMGFR on surface (FIG. 12)
[5] = molecular target: T4, PSMGFR minus 10 amino acids from the …; assay: selection screens
[6] = molecular target: T3, PSMGFR peptide (Primary Sequence of the …); assay: ELISA, peptide on plate (FIG. 2C)
Description: as §1

[7] = molecular target: T3, PSMGFR peptide (Primary Sequence of the …); assay: ELISA, surface coated with PSMGFR peptide
Description: Humanized MN-C2 scFv is then incubated with the surface, washed and detected according to standard methods.

[8] = molecular target: T3, PSMGFR peptide (Primary Sequence of the …); assay: ELISA, peptide immobilised on plate (FIG. 22A)
Description: as §2

[9] = molecular target: B1; assay: ELISA, N-10 and C-10 peptides on plate (FIG. 2E)
Description: as §1

B1
binding result (NME7-AB): no binding
binding result (dimeric NME1): no binding

B2: humanized MN-C3 antibody (impure preparation) (antibody, V domains shown)
VH: QVQLVQSGAEVKKPGASVKVSCKASGYTFTDYAMNWVRQAPGQGLEWMGVISTFSGNTNFNQKFKGRVTMTTDTSTSTAYMELRSLRSDDTAVYYCARSDYYGPYFDYWGQGTTLTVSS
VL: DIVMTQTPLSLSVTPGQPASISCRSSQTIVHSNGNTYLEWYLQKPGQSPQLLIYKVSNRFSGVPDRFSGSGSGTDFTLKISRVEAEDVGVYYCFQGSHVPFTFGGGTKVEIKR
notes: also called Impure humanized MN-C3 antibody
binding result [1]: binds

B3: mouse monoclonal antibody MN-C2 (antibody, V domains shown)
VH: EVQLEESGGGLVKPGGSLKLSCAASGFTFSGYAMSWVRQTPEKRLEWVATISSGGTYIYYPDSVKGRFTISRDNAKNTLYLQMSSLRSEDTAMYYCARLGGDNYYEYFDVWGAGTTVTVSS
VL: DIVITQSTASLGVSLGQRATISCRASKSVSTSGYSYMHWYQQRPGQPPKLLIYLASNLESGVPARFSGSGSGTDFTLNIHPVEEEDAATYYCQHSRELPFTFGGGTKLEIKR
notes: also called Min-C2
binding result [2]: binds
binding result [3]: binds

B4: humanized MN-E6 scFv (scFv, V domains shown, not shown: small tags and cut ends)
VH: EVQLVESGGGLVKPGGSLRLSCAASGFTFSRYGMSWVRQAPGKRLEWVSTISGGGTYIYYPDSVKGRFTISRDNAKNTLYLQMNSLRAEDTAVYYCTRDNYGRNYDYGMDYWGQGTLVTVSS
VL: EIVLTQSPATLSLSPGERATLTCSATSSVSYIHWYQQRPGQSPRLLIYSTSNLASGIPARFSGSGSGSDYTLTISSLEPEDFAVYYCQQRSSSPFTFGSGTKVEIK
notes: also called hu MN-E6 scFv
binding result [4]: binds

B5: mouse monoclonal antibody MN-E6 (antibody, V domains shown)
VH: EVKVVESGGDLVKPGGSLKLSCVVSGFTFSRYGMSWVRQTPGKRLEWVATISGGGTYIYYPDSVKGRFTISRDNAKNTLYLQMSSLKSEDTAMYHCTRDNYGRNYDYGMDYWGQGTSVTVSS
VL: QIVLTQSPAIMSASPGEEVTLTCSATSSVSYIHWFQQRPGTSPKLWIYSTSNLASGVPVRFSGSGYGTSYSLTISRMEAEDAATYYCQQRSSSPFTFGSGTKLEIK
notes: also called Min-E6; parent MN-E6 antibody
binding result [5]: binds
binding result [6]: binds

B6: humanized MN-C2 scFv (scFv, V domains shown, not shown: small tags and cut ends)
VH: EVQLVESGGGLVKPGGSLRLSCAASGFTFSGYAMSWVRQAPGKGLEWVSTISSGGTYIYYPDSVKGRFTISRDNAKNSLYLQMNSLRAEDTAVYYCARLGGDNYYEYFDVWGKGTTVTVSS
VL: DIVLTQSPASLAVSPGQRATITCRASKSVSTSGYSYMHWYQQKPGQPPKLLIYLASNLESGVPARFSGSGSGTDFTLTINPVEANDTANYYCQHSRELPFTFGGGTKVEIKR
notes: also called huMN-C2 scFv; hMN-C2 scFv
EC50 [7]: ~333 nM

B7: mouse monoclonal antibody MN-C3 (antibody, V domains shown)
VH: QVQLQQSGPELVRPGVSVKISCKGSGYRFTDYAMNWVKQSHAKSLEWIGVISTFSGNTNFNQKFKGKATMTVDKSSSTAYMELARLTSEDSAMYYCARSDYYGPYFDYWGQGTTLTVSS
VL: DVLMTQTPLSLPVSLGDQASISCRSSQTIVHSNGNTYLEWYLQKPGQSPKLLIYKVSNRFSGVPDRFSGSGSGTDFTLKINRVEAEDLGVYYCFQGSHVPFTFGSGTKLEIK
notes: also called Min-C3
binding result [8]: binds
binding result [9]: binds
binding result [3]: binds
